One molecule from patent publication US20160193329A1 can be followed below.

This assay concerns the target Toll-like Receptor 5 (human) (UniProt O60602). Nature of the assay: cell-based or functional assay.

B1: STF2.HA1 (SI) (protein)
chain: AQVINTNSLSLLTQNNLNKSQSALGTAIERLSSGLRINSAKDDAAGQAIANRFTANIKGLTQASRNANDGISIAQTTEGALNEINNNLQRVRELAVQSANSTNSQSDLDSIQAEITQRLNEIDRVSGQTQFNGVKVLAQDNTLTIQVGANDGETIDIDLKQINSQTLGLDSLNVQKAYDVKDTAVTTKAYANNGTTLDVSGLDDAAIKAATGGTNGTASVTGGAVKFDADNNKYFVTIGGFTGADAAKNGDYEVNVATDGTVTLAAGATKTTMPAGATTKTEVQELKDTPAVVSADAKNALIAGGVDATDANGAELVKMSYTDKNGKTIEGGYALKAGDKYYAADYDEATGAIKAKTTSYTAADGTTKTAANQLGGVDGKTEVVTIDGKTYNASKAAGHDFKAQPELAEAAAKTTENPLQKIDAALAQVDALRSDLGAVQNRFNSAITNLGNTVNNLSEARSRIEDSDYATEVSNMSRAQILQQAGTSVLAQANQVPQNVLSLLAKGIAPLQLGNCSVAGWILGNPECELLISRESWSYIVEKPNPENGTCYPGHFADYEELREQLSSVSSFERFEIFPKESSWPNHTTTGVSASCSHNGESSFYKNLLWLTGKNGLYPNLSKSYANNKEKEVLVLWGVHHPPNIGDQRALYHKENAYVSVVSSHYSRKFTPEIAKRPKVRDQEGRINYYWTLLEPGDTIIFEANGNLIAPRYAFALSRGFGSGIINS
With B1, the IL-8, Mean Result (ng/nL), HEK 293 cells, lot 1 (reference), well 1 came out at 635 ng/nL; the IL-8, Mean Result (ng/nL), HEK 293 cells, lot 1 (reference), well 2 is 797; the IL-8, Mean Result (ng/nL), HEK 293 cells, lot 1 (reference), well 3 is 1070; the IL-8, Mean Result (ng/nL), HEK 293 cells, lot 1 (reference), well 4 was found to be 1230. The molecule also had an IL-8, Mean Result (ng/nL), HEK 293 cells, lot 1 (reference), well 5 of 1360; an IL-8, Mean Result (ng/nL), HEK 293 cells, lot 1 (reference), well 6 of 1540; an IL-8, Mean Result (ng/nL), HEK 293 cells, lot 2, well 1 of 1460 ng/nL; an IL-8, Mean Result (ng/nL), HEK 293 cells, lot 2, well 2 of 1590. This molecule also gave an IL-8, Mean Result (ng/nL), HEK 293 cells, lot 2, well 3 of 1610; an IL-8, Mean Result (ng/nL), HEK 293 cells, lot 2, well 4 of 1300; an IL-8, Mean Result (ng/nL), HEK 293 cells, lot 2, well 5 of 1380; an IL-8, Mean Result (ng/nL), HEK 293 cells, lot 2, well 6 of 1090. Further, the IL-8, Mean of all wells, HEK 293 cells, lot 1 (reference) turned out to be 1110; the IL-8, Mean of all wells, HEK 293 cells, lot 2 stood at 1410; the T/C ratio (IL-8 of lot 2 against the reference lot 1 at about 278 ng/ml) worked out at 1.3.
